Literature values in article PMC6322933.

Biological target: ZPI (Homo sapiens) (UniProt Q9UK55)
Sequence of UniProt Q9UK55 (Q9UK55 22-444): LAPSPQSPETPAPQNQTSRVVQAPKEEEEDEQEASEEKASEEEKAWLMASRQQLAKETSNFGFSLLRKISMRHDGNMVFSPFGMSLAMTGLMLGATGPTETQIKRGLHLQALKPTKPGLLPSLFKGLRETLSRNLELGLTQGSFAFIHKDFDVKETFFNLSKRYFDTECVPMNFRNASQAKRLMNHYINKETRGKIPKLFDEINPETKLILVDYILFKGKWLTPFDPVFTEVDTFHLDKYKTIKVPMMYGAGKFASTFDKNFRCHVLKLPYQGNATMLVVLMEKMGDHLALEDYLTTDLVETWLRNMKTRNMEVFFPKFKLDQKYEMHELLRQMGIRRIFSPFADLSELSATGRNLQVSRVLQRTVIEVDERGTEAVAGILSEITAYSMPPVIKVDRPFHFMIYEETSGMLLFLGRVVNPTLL

Kd: 0.6 nM
Substance: Protein Z (from UniProt P22891)
